Legend:
[1] = molecular target: recombinant human soluble IGF1R fragment (R&D Systems) (human); experiment: competitive ELISA on coated sIGF1R fragment, competitor biotinylated 19D12 LCF/HCA; antibody at 0.25 ug/ml
[2] = molecular target: recombinant human soluble IGF1R fragment (R&D Systems) (human); experiment: competitive ELISA on coated sIGF1R fragment, inhibition of biotinylated 19D12 LCF/HCA binding; antibody at 0.5 ug/ml
[3] = molecular target: recombinant human soluble IGF1R fragment (R&D Systems) (human); experiment: competitive ELISA on coated sIGF1R fragment, competitor biotinylated 19D12 LCF/HCA; antibody at 0.03125 ug/ml
[4] = molecular target: recombinant human soluble IGF1R fragment (R&D Systems) (human); experiment: competitive ELISA on coated sIGF1R fragment, inhibition of biotinylated 19D12 LCF/HCA binding; antibody at 4 ug/ml
[5] = molecular target: recombinant human soluble IGF1R fragment (R&D Systems) (human); experiment: competitive ELISA on coated sIGF1R fragment, competitor biotinylated 19D12 LCF/HCA; antibody at 0.015625 ug/ml
[6] = molecular target: recombinant human soluble IGF1R fragment (R&D Systems) (human); experiment: competitive ELISA on coated sIGF1R fragment, inhibition of biotinylated 19D12 LCF/HCA binding; antibody at 1 ug/ml
[7] = molecular target: recombinant human soluble IGF1R fragment (R&D Systems) (human); experiment: competitive ELISA on coated sIGF1R fragment, inhibition of biotinylated 19D12 LCF/HCA binding; antibody at 0.25 ug/ml
[8] = molecular target: recombinant human soluble IGF1R fragment (R&D Systems) (human); experiment: competitive ELISA on coated sIGF1R fragment, inhibition of biotinylated 19D12 LCF/HCA binding; antibody at 0.03125 ug/ml
[9] = molecular target: recombinant human soluble IGF1R fragment (R&D Systems) (human); experiment: competitive ELISA on coated sIGF1R fragment, competitor biotinylated 19D12 LCF/HCA; antibody at 0.125 ug/ml
[10] = molecular target: recombinant human soluble IGF1R fragment (R&D Systems) (human); experiment: competitive ELISA on coated sIGF1R fragment, competitor biotinylated 19D12 LCF/HCA; antibody at 0.0625 ug/ml
[11] = molecular target: recombinant human soluble IGF1R fragment (R&D Systems) (human); experiment: competitive ELISA on coated sIGF1R fragment, competitor biotinylated 19D12 LCF/HCA; antibody at 2 ug/ml
[12] = molecular target: recombinant human soluble IGF1R fragment (R&D Systems) (human); experiment: competitive ELISA on coated sIGF1R fragment, inhibition of biotinylated 19D12 LCF/HCA binding; antibody at 0.125 ug/ml
[13] = molecular target: recombinant human soluble IGF1R fragment (R&D Systems) (human); experiment: competitive ELISA on coated sIGF1R fragment, inhibition of biotinylated 19D12 LCF/HCA binding; antibody at 0.007813 ug/ml
[14] = molecular target: recombinant human soluble IGF1R fragment (R&D Systems) (human); experiment: competitive ELISA on coated sIGF1R fragment, inhibition of biotinylated 19D12 LCF/HCA binding; antibody at 8 ug/ml
[15] = molecular target: recombinant human soluble IGF1R fragment (R&D Systems) (human); experiment: competitive ELISA on coated sIGF1R fragment, inhibition of biotinylated 19D12 LCF/HCA binding; antibody at 0.0625 ug/ml
[16] = molecular target: recombinant human soluble IGF1R fragment (R&D Systems) (human); experiment: competitive ELISA on coated sIGF1R fragment, competitor biotinylated 19D12 LCF/HCA; antibody at 0.007813 ug/ml
[17] = molecular target: recombinant human soluble IGF1R fragment (R&D Systems) (human); experiment: competitive ELISA on coated sIGF1R fragment, competitor biotinylated 19D12 LCF/HCA; antibody at 4 ug/ml
[18] = molecular target: recombinant human soluble IGF1R fragment (R&D Systems) (human); experiment: competitive ELISA on coated sIGF1R fragment, competitor biotinylated 19D12 LCF/HCA; antibody at 8 ug/ml
[19] = molecular target: recombinant human soluble IGF1R fragment (R&D Systems) (human); experiment: competitive ELISA on coated sIGF1R fragment, competitor biotinylated 19D12 LCF/HCA; antibody at 1 ug/ml
[20] = molecular target: recombinant human soluble IGF1R fragment (R&D Systems) (human); experiment: competitive ELISA on coated sIGF1R fragment, inhibition of biotinylated 19D12 LCF/HCA binding; antibody at 2 ug/ml
[21] = molecular target: recombinant human soluble IGF1R fragment (R&D Systems) (human); experiment: competitive ELISA on coated sIGF1R fragment, inhibition of biotinylated 19D12 LCF/HCA binding; antibody at 0.015625 ug/ml
[22] = molecular target: recombinant human soluble IGF1R fragment (R&D Systems) (human); experiment: competitive ELISA on coated sIGF1R fragment, competitor biotinylated 19D12 LCF/HCA; antibody at 0.5 ug/ml

Row | OD [1] | % Inhibition [2] | OD [3] | % Inhibition [4] | OD [5] | % Inhibition [6] | % Inhibition [7] | % Inhibition [8] | OD [9] | OD [10] | OD [11] | % Inhibition [12] | % Inhibition [13] | % Inhibition [14] | % Inhibition [15] | OD [16] | OD [17] | OD [18] | OD [19] | % Inhibition [20] | Substance | other results
1 | 0.981 OD | 50.9% | 1.41 OD | 94.3% | 1.25 OD | 72.2% | 23.3% | -10.1% | 1.16 OD | 1.24 OD | 0.163 OD | 9.61% | -2.16% | 96.5% | 2.69% | 1.31 OD | 0.0725 OD | 0.045 OD | 0.355 OD | 87.2% | commercially available anti-IGF1R antibody MAB391 | % Inhibition [21]: 1.9%; OD [22]: 0.628 OD
2 | 0.169 OD | 98.4% | 1.1 OD | 100% | 1.25 OD | 99.9% | 86.8% | 13.8% | 0.443 OD | 1 OD | -0.0025 OD | 65.3% | 4.05% | 100% | 21.7% | 1.23 OD | -0.0025 OD | -0.0045 OD | 0.001 OD | 100% | anti-IGF1R antibody 19D12 LCF/HCA | % Inhibition [21]: 2.33%; OD [22]: 0.021 OD
